Data reported in US20210380994A1, “LACTOCOCCUS LACTIS EXPRESSION SYSTEM FOR DELIVERING PROTEINS EFFICACIOUS FOR THE TREATMENT OF EPITHELIAL BARRIER FUNCTION DISORDERS” (Second Genome, Inc., priority 2018, published 2021).

Key:
[1] = tested on: HCT8 enterocyte and HT29-MTX goblet cell lines; assay: Oris Cell Migration assay (epithelial cell wound healing); type: cell-based, human; conditions: 48 hours; SG-11 1 μg/ml, EGF 30 ng/ml, staurosporine 100 nM; FIG. 2
Text: The 96 well Oris Cell Migration assay containing plugs preventing cell attachment in the center of each well was used according to the manufacturer's instructions (Platypus Technologies. Madison, Wis.).
The migration assay plates were warmed to room temperature prior to use and plugs were removed rom 100% confluence wells prior to cell addition. The HCT8 enterocyte and HT29-MTX goblet cell lines were used at a 9:1 ratio with a total of 5×10^4 total cells added per well (4.5×10^4 HCT8 cells and 0.5×10^4 HT29-MTX cells). Cells were incubated at 37° C.+5% CO2 for 24 hours. Plugs were then removed from all control and sample wells. Control wells included cells treated with the diluent vehicle as the blank, 30 ng/ml epidermal growth factor (EGF) as the positive control, and 100 nM staurosporine as the negative control, all diluted in cRPMI. Sample wells contained SG-11 protein (SEQ ID NO:9) at a concentration of 1 μg/ml diluted in eRPMI. 100% and 0% wells were cultured in cRPMI. […] The green fluorescent viability dye Calcenin AM was added to all wells at a concentration of 0.5 μg/min PBS containing 0.9 mM CaCl2 and 0.5 mM MgCl2, incubated for 30 min at 37° C.+5% CO2, the dye was removed and cells were washed in PBS containing 0.9 mM CaCl2 and 0.5 mM MgCl2, and fluorescence was measured. […] Samples were normalized between 100% and 0% samples and values expressed as a percent growth.

[2] = stability by analytical size exclusion chromatography and Ellman's reagent assay (Example 9); type: physicochemical
Procedure: The stability of SG-11 (SEQ ID NO:9) was evaluated following the incubation at 37° C. for one week and at 4° C. for 3 weeks in Buffer C (100 mM sodium phosphate, pH 7.0, 0.5 M sorbitol). The stability was assessed by monitoring aggregation formation with analytical size exclusion chromatography (SEC) equilibrated with Buffer D (100 mM sodium phosphate, pH 7.0, 10% glycerol). […] The cause of the aggregation was investigated as follows. There are two cysteine residues found in SG-11 at positions 147 and 151 (relative to SEQ ID NO:7). […] As free sulphydryl groups could cause aggregation by forming unpreferable intermolecular disulfide bonds, it was examined whether the presence of reducing agent, such as β-mercaptoethanol, could prevent the aggregation.

[3] = tested on: mice treated with DSS; assay: DSS model of colitis with SG-11V5 protein and SG-11V5-expressing L. lactis (Example 22); type: in vivo
Procedure: Specifically, the mice in this Example 22 were treated with DSS, a chemical known to induce intestinal epithelial damage and thereby reduce intestinal barrier integrity and function. These DSS mice were then administered an L. lactis strain expressing SG-11V5 as described above, or a positive or negative control treatment.
In this study, 3 independent groups of mice (10 mice per group) were used to test the 3 different L. lactis strains: Group 1: L. lactis harboring parent pNZ8124 vector, Group 2: L. lactis harboring inducible SG-11V5 vector (PnisA:otsBA::PnisA:SPusp45:SG-11V5), and Group 3: L. lactis harboring constitutive SG-11V5 vector (PnisA:otsBA::Pusp45:SPusp45:SG-11V5). Each of the strains in Groups 1-3 had been grown until the cultures reached an OD600 of about 0.5, induced with nisin for 2 hours, concentrated to about 10^11 cells/mL in PBS with glycerol, and stored at −80° C. Cells were analyzed by Western blot to confirm protein expression. An additional 4 groups of mice (n=10 per group) were included as controls: Group 4: untreated; Group 5: treated p.o. with vehicle only; Group 6: intraperitoneal (i.p.) administration of Gly2-GLP2 (50 nmoles/kg); and Group 7: i.p. administration of SG-11V5 protein (160 nmoles/kg (4.0 mg/kg).
I.p. administration of Gly2-GLP2 and SG-11V5 was done twice per day, with i.p. administration to the right abdomen in the morning and to the left abdomen in the evening for 6 consecutive days (Day 0-Day 5) and then to the right abdomen on Day 6 prior to euthanasia and tissue recovery. Gly2-GLP2 (CPC Scientific Peptide Company) was prepared by dissolving in PBS(Corning 21-040-CV) with 5 mM NaOH to a concentration of 5 mg/mL Aliquots were stored at −80C prior to use.
Following a 7-day acclimation period, treatments wore initiated in the morning (AM) of Day 0 with i.p. administration of Gly2-GLP2 or purified SG-11V5 protein as a positive control, oral gavage of strain vehicle only (phosphate buffered saline (PBS; Corning 21-040-CV)), or with oral gavage administration of the appropriate L. lactis expression strain.
Fresh drinking water treated with 2.5% DSS was prepared and provided to all the mice on Days 0, 2, and 4 about 6 hours after AM dosing. […] Also, treatments were continued with the L. lactis strains described above once a day (q.d) in the morning with p.o. administration at 10^10 CFU of the strains comprising i) pNZ8124 vector, ii) inducible SG-11V5 vector, or iii) constitutive SG-11V5 vector.
On Day 6, only AM dosing was performed for intraperitoneal (i.p.) injection of protein and oral gavage (p.o) administration of L. lactis strains expressing SG-11V5 protein. Mice were fasted for 4 hours and then orally gavaged with 600 mg/kg 4KDa dextran labeled with fluorescin isothiocyanate (FITC) [4KDa-FITC]. About 50 minutes after the 4KDa-FITC gavage, mice were anesthetic with ketamine (ket)/xylazine (xyl) drug. Mice were injected with 10 ml/kg i.p of 10 mg/ml ketamine and 1 mg/ml xylazine (100 ul per 10 g body weight). One hour after administering 4KDa-FITC and about 10 minutes after ketamine/xylazine anesthesia, mice were euthanized, and blood and tissues were collected to assess barrier function and DSS model readouts. […]
Upon completion of the DSS models above, LBP levels were measured as an inflammation centric readout of barrier function following the protocol detailed above in Examples 7 and 13. […] LBP levels were measured in serum using a commercially available ELISA Kit (Enzo Life Sciences). […]

[4] = SG-11V5 protein 160 nmoles/kg i.p. b.i.d.

B1: SG-11: Roseburia hominis protein comprising SEQ ID NO:3; tested as SEQ ID NO:5, SEQ ID NO:7 or FLAG-tagged SEQ ID NO:9 (protein, listed as Rosburia hominis)
chain: LEGEESVVYVGKKGVIASLDVETLDQSYYDETELKSYVDAEVEDYTAEHGKNAVKVESLKVEDGVAKLKMKYKTPEDYTAFNGIELYQGKVVASLAAGYVYDGEFARVEEGKVVGAATKQDIYSEDDLKVAIIRANTDVKVDGEICYVSCQNVKLTGKDSVSIRDGYYLETGSVTASVDVTGQESVGTEQLSGTEQMEMTGEPVNADDTEQTEAAAGDGSFETDVYTFIVYK
percent growth (epithelial cell wound healing) [1]: significant increase in growth | aggregation by analytical SEC ([2]; 4-days incubation at 37° C. in the presence of 2.5% (v/v) β-mercaptoethanol): greatly suppressed | aggregation formation by analytical SEC ([2]; 4° C. for 3 weeks in Buffer C (100 mM sodium phosphate, pH 7.0, 0.5 M sorbitol), vs freshly thawed protein): No noticeable change | aggregation formation by analytical SEC ([2]; 37° C. for one week in Buffer C): clearly showed aggregation peaks | free sulfhydryl groups (Ellman's reagent assay) ([2]; SG-11 (SEQ ID NO:9)): presence of free sulfhydryl groups

B2: SG-11V5: variant of SEQ ID NO:7 with N53S, N83S, C147V, C151S (protein)
chain: MLEGEESVVYVGKKGVIASLDVETLDQSYYDETELKSYVDAEVEDYTAEHGKSAVKVESLKVEDGVAKLKMKYKTPEDYTAFSGIELYQGKVVASLAAGYVYDGEFARVEEGKVVGAATKQDIYSEDDLKVAIIRANTDVKVDGEIVYVSSQNVKLTGKDSVSIRDGYYLETGSVTASVDVTGQESVGTEQLSGTEQMEMTGEPVNADDTEQTEAAAGDGSFETDVYTFIVYK
modifications: Artificial variant of SG-11 (N53S, N83S, C147V, C151S)
body weight ([3]; SG-11V5 160 nmoles/kg i.p. b.i.d., day 6): significant improvement in body weight | colon length [3, 4]: significant increase in the colon length | colon weight-to-length ratio [3, 4]: significant decrease in the colon weight-to-length ratio | gross pathology (clinical score 0-5) ([3]; SG-11V5 protein 160 nmoles/kg i.p. b.i.d., p<0.0001): significant improvement in gross pathology | 4KDa-FITC dextran translocation across the epithelial barrier ([3]; SG-11V5 protein 160 nmoles/kg i.p. b.i.d., vs DSS + vehicle): non-significant increase
